# Results taken from patent US20200199241A1 (Chugai, published 2020).
# Numbering of substitutions follows the chain as printed. Numbers in names are those of the source.
# T1: FcγRIIa type R (human, UniProt P12318 36-217)
# T1 construct: also called FcγRIIaR; FcγRIIa(R)
# T1 chain: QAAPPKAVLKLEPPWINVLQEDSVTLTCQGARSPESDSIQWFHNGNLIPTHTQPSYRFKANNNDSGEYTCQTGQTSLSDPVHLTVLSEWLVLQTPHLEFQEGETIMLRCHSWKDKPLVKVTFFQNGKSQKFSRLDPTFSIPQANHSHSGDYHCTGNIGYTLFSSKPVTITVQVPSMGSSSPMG
# T2: FcγRIIa type H (human, UniProt P12318 36-217)
# T2 construct: also called FcγRIIaH; FcγRIIa(H)
# T2 sequence: T1 chain with R133H
# T3: FcγRIIb (human, UniProt P31994 43-217, limits assumed)
# T3 construct: also called FcγIIB; CD32
# T3 sequence: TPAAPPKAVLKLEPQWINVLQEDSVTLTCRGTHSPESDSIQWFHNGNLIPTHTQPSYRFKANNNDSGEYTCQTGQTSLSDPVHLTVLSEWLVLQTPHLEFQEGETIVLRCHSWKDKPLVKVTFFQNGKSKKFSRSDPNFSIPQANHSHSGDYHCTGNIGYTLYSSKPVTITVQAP
# T4: FcγRIIa type H (human, UniProt P12318 36-217)
# T4 construct: also called FcγRIIaH; FcγRIIH
# T4 sequence: T1 chain with R133H
# T5: FcγRIIb (human, UniProt P31994 43-217, limits assumed)
# T5 construct: also called FcgRIIb; FcγIIB
# T5 sequence: T3 sequence
# T6: FcγRIIb (human, UniProt P31994 43-217, limits assumed)
# T6 construct: SPR analyte; also called FcγIIB; CD32
# T6 sequence: T3 sequence
# T7: FcγRIIa type R (human, UniProt P12318 36-217)
# T7 construct: SPR analyte; also called FcγRIIaR; FcγRIIa(R)
# T7 chain: T1 chain
# T8: FcγRIIa type H (human, UniProt P12318 36-217)
# T8 construct: SPR analyte; also called FcγRIIaH
# T8 sequence: T1 chain with R133H
# T9: human FcγRIIa type R (human, UniProt P12318 36-217)
# T9 construct: also called FcγRIIaR; FcγRIIa(R)
# T9 chain: T1 chain
# T10: human FcγRIIa type H (human, UniProt P12318 36-217)
# T10 construct: also called FcγRIIaH; FcγRIIa(H)
# T10 sequence: T1 chain with R133H
# T11: human FcγRIIb (human, UniProt P31994 43-217, limits assumed)
# T11 construct: also called FcγIIB
# T11 sequence: T3 sequence
# B1: IL6R-BP202/IL6R-L (antibody, human IgG1)
# heavy: QVQLQESGPGLVKPSETLSLTCAVSGHSISHDHAWSWVRQPPGEGLEWIGFISYSGITNYNPSLQGRVTISRDNSKNTLYLQMNSLRAEDTAVYYCARSLARTTAMDYWGEGTLVTVSSASTKGPSVFPLAPSSKSTSGGTAALGCLVKDYFPEPVTVSWNSGALTSGVHTFPAVLQSSGLYSLSSVVTVPSSSLGTQTYICNVNHKPSNTKVDKKVEPKSCDKTHTCPPCPAPELLGDDSVFLFPPKPKDTLMISRTPEVTCVVVDVSHEDGEVKFNWYVDGVEVHNAKTKPREEQYNSTYRVVSVLTVLHQDWLNGKEYKCKVSNAALPRPIEKTISKAKGQPREPQVYTLPPSRDELTKNQVSLTCLVKGFYPSDIAVEWESNGQPENNYKTTPPVLDSDGSFFLYSKLTVDKSRWQQGNVFSCSVMHEALHNHYTQESLSLSP
# light: DIQMTQSPSSLSASVGDRVTITCRASQDISSYLNWYQQKPGKAPKLLIYYTSRLHSGVPSRFSGSGSGTDFTFTISSLQPEDIATYYCQQGNTLPYTFGQGTKVEIK
# notes: Anti-IL-6R human IgG1 variant; copies: 2 + 2
# B2: IL6R-BP199/IL6R-L (antibody, human IgG1)
# heavy: B1 heavy with E235D, D239G, G273P, A328D
# light: B1 light
# notes: as for B1
# B3: IL6R-BP192/IL6R-L (antibody, human IgG1)
# heavy: B1 heavy with E235D, D239G, H270D, Y298D, A328K, R332K
# light: B1 light
# notes: as for B1
# B4: IL6R-BP210/IL6R-L (antibody, human IgG1)
# heavy: B1 heavy with H270D, A328K
# light: B1 light
# notes: as for B1
# B5: IL6R-BP205/IL6R-L (antibody, human IgG1)
# heavy: B1 heavy with E235D, D239G, Y298D, A328K
# light: B1 light
# notes: as for B1
# B6: IL6R-BP201/IL6R-L (antibody, human IgG1)
# heavy: B1 heavy with E235D, A328K
# light: B1 light
# notes: as for B1
# B7: IL6R-BP204/IL6R-L (antibody, human IgG1)
# heavy: B1 heavy with E235D, D239G
# light: B1 light
# notes: as for B1
# B8: IL6R-BP193/IL6R-L (antibody, human IgG1)
# heavy: B1 heavy with E235D, D239G, H270D, A328K, R332K
# light: B1 light
# notes: as for B1
# B9: IL6R-BP212/IL6R-L (antibody, human IgG1)
# heavy: B1 heavy with E235D, D239G, H270D, Y298D, A328K
# light: B1 light
# notes: as for B1
# B10: IL6R-BP136/IL6R-L (antibody, human IgG1)
# heavy: B1 heavy with D239G, G273P, R332A
# light: B1 light
# notes: IgG1; Fc variant of IL6R-B3; copies: 2 + 2
# B11: IL6R-2B002/IL6R-L (antibody, human IgG1)
# heavy: B1 heavy with E235D, D239G, G273P, A328K, R332A
# light: B1 light
# notes: as for B10
# B12: IL6R-BP142/IL6R-L (antibody, human IgG1)
# heavy: B1 heavy with D239G, G273P, A328N, R332A
# light: B1 light
# notes: as for B10
# B13: IL6R-BP176/IL6R-L (antibody, human IgG1)
# heavy: B1 heavy with E235D, D239G, G273P, A328D, R332K
# light: B1 light
# B14: IL6R-BP181/IL6R-L (antibody, human IgG1)
# heavy: B1 heavy with E235D, D239G, R332K
# light: B1 light
# B15: IL6R-BP145/IL6R-L (antibody, human IgG1)
# heavy: B1 heavy with L236Y, G273P, A328K, R332A
# light: B1 light
# B16: IL6R-BP148/IL6R-L (antibody, human IgG1)
# heavy: B1 heavy with E235D, L236Y, G273P, R332K
# light: B1 light
# B17: IL6R-BP112/IL6R-L (antibody, human IgG1)
# heavy: B1 heavy with D239G, A328K, R332A
# light: B1 light
# notes: Alteration introduced into IL6R-B3; also called P238D/P271G
# B18: IL6R-BP117/IL6R-L (antibody, human IgG1)
# heavy: B1 heavy with D239G, G273P, A328D, R332A
# light: B1 light
# notes: Alteration introduced into IL6R-B3; also called P238D/K326D
# B19: IL6R-BP120/IL6R-L (antibody, human IgG1)
# heavy: B1 heavy with D239G, G273P, A328E, R332A
# light: B1 light
# notes: Alteration introduced into IL6R-B3; also called P238D/K326E
# Target: T12, FcγRIa (human, UniProt P12314 16-292, limits assumed)
# T12 construct: also called CD64
# Experiment: SPR (Biacore), method of Example 14
# T12 sequence (P12314 16-292 limits assumed): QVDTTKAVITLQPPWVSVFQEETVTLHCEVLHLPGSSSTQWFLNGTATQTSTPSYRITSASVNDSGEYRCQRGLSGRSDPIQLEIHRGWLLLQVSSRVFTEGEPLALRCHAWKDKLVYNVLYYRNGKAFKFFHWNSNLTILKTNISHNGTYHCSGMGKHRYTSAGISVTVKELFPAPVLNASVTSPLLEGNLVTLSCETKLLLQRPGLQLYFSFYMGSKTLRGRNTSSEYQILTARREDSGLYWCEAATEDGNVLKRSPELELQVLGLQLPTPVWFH
# Source text: (§1) Furthermore, KD(IIaR)/KD(IIb) and KD(IIaH)/KD(IIb) in the table respectively represent the value obtained by dividing the KD value of each variant for FcγRIIaR by the KD value of each variant for FcγRIIb, and the value obtained by dividing the KD value of each variant for FcγRIIaH by the KD value of each variant for FcγRIIb. KD(IIb) of the parent polypeptide/KD(IIb) of the altered polypeptide refers to the value obtained by dividing the KD value of the parent polypeptide for FcγRIIb by the KD value of each variant for FcγRIIb.
row,Kd [nM],Binder
1,95,B1
2,6.4,B2
3,6.6,B3
4,65,B4
5,7.7,B5
6,51,B6
7,7.6,B7
8,6.3,B8
9,5.2,B9

# Target: T1, FcγRIIa type R
# Experiment: SPR (Biacore), method of Example 14
# Source text: as §1
row,Kd [nM],Binder
1,1200,B1
2,2600,B3
3,1000,B4
4,3500,B5
5,840,B6
6,4500,B7
7,3500,B9

# Target: T2, FcγRIIa type H
# Experiment: SPR (Biacore), method of Example 14
# Source text: as §1
row,Kd [nM],Binder
1,92000,B1
2,26000,B2
3,32000,B3
4,95000,B4
5,28000,B5
6,69000,B6
7,21000,B7
8,25000,B8
9,22000,B9

# Target: T3, FcγRIIb
# Experiment: SPR (Biacore), method of Example 14
# Source text: as §1
row,Kd [nM],Binder
1,64,B1
2,490,B2
3,110,B3
4,39,B4
5,160,B5
6,40,B6
7,250,B7
8,120,B8
9,170,B9

# Target: T13, FcγRIa (human, UniProt P12314 16-292, limits assumed)
# T13 construct: also called FcgRIa; CD64
# Experiment: SPR (Biacore), FcγR over captured antibody
# T13 sequence (P12314 16-292 limits assumed): as above
row,Kd [nM],Binder
1,6.6,B10
2,6.4,B11
3,5.3,B12

# Target: T4, FcγRIIa type H
# Experiment: SPR (Biacore), FcγR over captured antibody
row,Kd [nM],Binder
1,38000,B10
2,86000,B11
3,93000,B12

# Target: T5, FcγRIIb
# Experiment: SPR (Biacore), FcγR over captured antibody
row,Kd [nM],Binder
1,800,B10
2,930,B11
3,1200,B12

# Target: T14, FcγRIIIa type V (human, UniProt P08637 17-208, limits assumed)
# T14 construct: also called FcγRIIIaV; FcgRIIIaV
# Experiment: SPR (Biacore), FcγR over captured antibody
# T14 sequence (P08637 other isoform, or with tags, fused parts or gaps limits assumed): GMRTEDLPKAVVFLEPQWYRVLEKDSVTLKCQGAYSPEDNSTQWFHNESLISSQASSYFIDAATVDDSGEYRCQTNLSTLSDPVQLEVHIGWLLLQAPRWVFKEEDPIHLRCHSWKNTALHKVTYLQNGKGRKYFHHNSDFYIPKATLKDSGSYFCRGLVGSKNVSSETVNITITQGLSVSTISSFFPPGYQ
row,Kd [nM],Binder
1,69000,B10
2,53000,B11
3,110000,B12

# Target: T6, FcγRIIb
# Experiment: ratio of SPR KDs; reference IL6R-B3/IL6R-L
row,KD(IIb) of the parent polypeptide/KD(IIb) of altered polypeptide,Binder
1,8.6,B13
2,19.3,B14
3,9.1,B15
4,41.4,B16

# Target: T3, FcγRIIb
# Experiment: ratio of SPR KD values, parent IL6R-B3/IL6R-L
# Source text: as §1
row,KD(IIb) of the parent polypeptide/KD(IIb) of altered polypeptide [fold],Binder
1,48.4,B1
2,6.3,B2
3,27.3,B3
4,78.4,B4
5,19.4,B5
6,77.1,B6
7,12.2,B7
8,25.5,B8
9,18.7,B9

# Target: T15, FcγRIa (human, UniProt P12314 16-292, limits assumed)
# T15 construct: SPR analyte; also called CD64
# Experiment: SPR (Biacore), antibody captured, FcγR analyte
# T15 sequence (P12314 16-292 limits assumed): as the sequence (P12314 16-292 limits assumed) above
row,Kd [nM],Binder
1,7.3,B13
2,7.5,B14
3,120,B15
4,89,B16

# Target: T7, FcγRIIa type R
# Experiment: SPR (Biacore), antibody captured, FcγR analyte
row,Kd [nM],Binder
1,6900,B13
2,3200,B14
3,3400,B15
4,1100,B16

# Target: T8, FcγRIIa type H
# Experiment: SPR (Biacore), antibody captured, FcγR analyte
row,Kd [nM],Binder
1,30000,B13
2,26000,B14
3,17000,B15
4,~7000,B16

# Target: T6, FcγRIIb
# Experiment: SPR (Biacore), antibody captured, FcγR analyte
row,Kd [nM],Binder
1,360,B13
2,160,B14
3,340,B15
4,75,B16

# Target: T16, FcγRIIIa type V (human, UniProt P08637 17-208, limits assumed)
# T16 construct: SPR analyte; allotype V158 was used here; also called FcγRIIIaV; FcγRIIIa(V)
# Experiment: SPR (Biacore), antibody captured, FcγR analyte
# T16 sequence (P08637 other isoform, or with tags, fused parts or gaps limits assumed): as the sequence (P08637 other isoform, or with tags, fused parts or gaps limits assumed) above
row,Kd [nM],Binder
1,54000,B13
2,57000,B14
3,45000,B15
4,30000,B16

# Target: T17, human FcγRIa (human, UniProt P12314 16-292, limits assumed)
# T17 construct: also called CD64
# Experiment: SPR (Biacore), binding amount relative to IL6R-BF648/IL6R-L = 100
# T17 sequence (P12314 16-292 limits assumed): as the sequence (P12314 16-292 limits assumed) above
row,relative binding,Binder
1,119,B17
2,124,B18
3,125,B19

# Target: T9, human FcγRIIa type R
# Experiment: as above
row,relative binding,Binder
1,340,B17
2,166,B18
3,175,B19

# Target: T10, human FcγRIIa type H
# Experiment: as above
row,relative binding,Binder
1,113,B17
2,96,B18

# Target: T11, human FcγRIIb
# Experiment: as above
row,relative binding,Binder
1,157,B17
2,118,B18
3,114,B19
